The text below walks through data of patent US20260166140A1, “Combinations Involving Epidermal Growth Factor Receptor Tyrosine Kinase Inhibitors For the Treatment of Cancer” (AstraZeneca AB, priority 2022, published 2026).

One experiment concerns H1975 cells. Briefly: Internalization of AF647-labeled antibodies, live cell confocal fluorescence microscopy. Format: cell-based. Particulars: images every 5 min. How it is done:
Internalization kinetics of AlexaFluor647 (AF647) primary-labeled DuetMabs: RAA22/B09 and QD6/B09 antibodies was assessed in vitro using the EGFR and c-MET expressing cell line, H1975. Each antibody was pre-bound to cells and antibody translocation from cell surface to cytoplasm was then monitored using live cell confocal fluorescence microscopy. Both antibodies localized primarily on the cell surface before (T=0) subjecting to internalization conditions and were translocated to the cytoplasm area after 1 hour (data not shown). Kinetic images were taken every 5 min over the time course of internalization and were processed using a quantitative algorithm to determine internalization kinetic constants and half-times.
To evaluate the mode of antibody internalization and to investigate contribution of each arm to overall internalization of the DuetMabs, we evaluated internalization of single-arm specific control antibody molecules, QD6/IgG and B09/IgG, against duet QD6/B09, and RAA22/IgG and B09/IgG against duet RAA22/B09 in H1975 cells, which express both EGFR and c-MET. Since only one arm is specific for the target receptor, the control antibody can only internalize via one receptor eliminating dual receptor targeting and cross-linking as mode of internalization.

The target of experiment [1] is T1, Cynomolgus monkey cMET (recombinant, soluble monomeric) (cynomolgus monkey, UniProt A0M8R7 25-932 (Papio anubis entry)).
T1 construct: also called cyno cMET
The experiment can be described thus: SPR, Biacore T200, antibody captured on anti-human IgG, soluble monomeric antigen as analyte, 25 C. (In general: Surface plasmon resonance follows binding to a sensor surface in real time, without labels.)

Experiment [2] has as its target T2, Human EGFR (recombinant, soluble monomeric) (human, UniProt P00533 25-645).
T2 construct: also called EGFR antigen
The description is as above.

For experiment [3], the target named is T3, Cynomolgus monkey EGFR (recombinant, soluble monomeric) (cynomolgus monkey, UniProt P55245 25-645 (rhesus entry)).
T3 construct: also called cyno EGFR
The experiment is described as above.

Experiment [4] deals with T4, Mouse EGFR (recombinant, soluble monomeric) (mouse, UniProt Q01279 25-647).
T4 construct: also called murine EGFR
Described as above.

Experiment [5] concerns the target T5, Human cMET (recombinant, soluble monomeric) (human, UniProt P08581 25-932).
T5 construct: in the HTRF assay it is called the human cMET receptor; also called His-tagged cMET antigen
The experiment is described as above.

The target in a further experiment is Mouse cMET (recombinant) (mouse, UniProt P16056 25-929, limits assumed). The experiment can be described thus: ELISA: antigen coated at 1 ug/mL, antibody dilution series, goat anti-human Fab-HRP, A450; panel Mouse cMET. In general terms: ELISA stands for enzyme-linked immunosorbent assay.
In a further experiment the target is T6, HER4 (UniProt Q15303 26-649, limits assumed).
T6 construct: also called EGFR HER family protein HER4
T6 sequence (looked up): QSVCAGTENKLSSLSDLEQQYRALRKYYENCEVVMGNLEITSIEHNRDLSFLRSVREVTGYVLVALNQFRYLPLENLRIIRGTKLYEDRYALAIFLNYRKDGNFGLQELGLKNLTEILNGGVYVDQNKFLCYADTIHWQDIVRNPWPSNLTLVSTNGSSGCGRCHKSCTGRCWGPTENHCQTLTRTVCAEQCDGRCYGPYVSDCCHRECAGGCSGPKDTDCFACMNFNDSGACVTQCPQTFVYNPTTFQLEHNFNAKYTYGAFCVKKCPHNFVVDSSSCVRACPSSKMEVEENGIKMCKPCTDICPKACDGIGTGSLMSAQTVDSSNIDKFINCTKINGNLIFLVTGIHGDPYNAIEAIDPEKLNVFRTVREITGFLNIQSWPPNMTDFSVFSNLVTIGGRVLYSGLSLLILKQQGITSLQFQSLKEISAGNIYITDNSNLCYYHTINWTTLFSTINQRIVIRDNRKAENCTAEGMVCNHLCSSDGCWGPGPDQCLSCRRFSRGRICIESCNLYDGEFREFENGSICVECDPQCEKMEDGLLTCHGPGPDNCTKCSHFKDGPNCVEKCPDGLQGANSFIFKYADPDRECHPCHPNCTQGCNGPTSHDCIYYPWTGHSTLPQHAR
Briefly: ELISA: antigen coated at 1 ug/mL, antibody dilution series, goat anti-human Fab-HRP, A450; panel Human HER4.

Another experiment has as its target T7, Semaphorin 3a (UniProt Q14563 21-771, limits assumed).
T7 construct: also called Sema 3a
T7 sequence (looked up): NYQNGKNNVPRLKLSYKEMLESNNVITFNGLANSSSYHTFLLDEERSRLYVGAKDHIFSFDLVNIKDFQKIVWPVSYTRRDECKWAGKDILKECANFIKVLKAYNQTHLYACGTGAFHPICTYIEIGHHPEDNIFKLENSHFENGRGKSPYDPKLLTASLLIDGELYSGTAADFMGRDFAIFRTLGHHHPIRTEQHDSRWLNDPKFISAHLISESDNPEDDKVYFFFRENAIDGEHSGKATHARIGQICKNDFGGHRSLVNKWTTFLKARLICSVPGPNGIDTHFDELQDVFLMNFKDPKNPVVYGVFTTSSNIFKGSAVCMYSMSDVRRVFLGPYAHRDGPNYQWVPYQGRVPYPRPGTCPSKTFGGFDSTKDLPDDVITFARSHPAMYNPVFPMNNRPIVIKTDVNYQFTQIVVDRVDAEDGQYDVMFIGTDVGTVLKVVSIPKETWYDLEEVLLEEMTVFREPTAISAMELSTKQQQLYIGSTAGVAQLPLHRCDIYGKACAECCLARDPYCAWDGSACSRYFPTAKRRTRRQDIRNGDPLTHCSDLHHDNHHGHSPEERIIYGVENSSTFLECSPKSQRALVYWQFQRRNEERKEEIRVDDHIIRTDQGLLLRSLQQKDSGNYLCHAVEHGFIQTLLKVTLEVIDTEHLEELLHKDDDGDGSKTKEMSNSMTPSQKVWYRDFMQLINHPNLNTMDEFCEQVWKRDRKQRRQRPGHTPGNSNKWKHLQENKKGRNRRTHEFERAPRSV
The experiment can be described thus: ELISA: antigen coated at 1 ug/mL, antibody dilution series, goat anti-human Fab-HRP, A450; panel Human Sema3a.

T5 sequence (P08581 25-932): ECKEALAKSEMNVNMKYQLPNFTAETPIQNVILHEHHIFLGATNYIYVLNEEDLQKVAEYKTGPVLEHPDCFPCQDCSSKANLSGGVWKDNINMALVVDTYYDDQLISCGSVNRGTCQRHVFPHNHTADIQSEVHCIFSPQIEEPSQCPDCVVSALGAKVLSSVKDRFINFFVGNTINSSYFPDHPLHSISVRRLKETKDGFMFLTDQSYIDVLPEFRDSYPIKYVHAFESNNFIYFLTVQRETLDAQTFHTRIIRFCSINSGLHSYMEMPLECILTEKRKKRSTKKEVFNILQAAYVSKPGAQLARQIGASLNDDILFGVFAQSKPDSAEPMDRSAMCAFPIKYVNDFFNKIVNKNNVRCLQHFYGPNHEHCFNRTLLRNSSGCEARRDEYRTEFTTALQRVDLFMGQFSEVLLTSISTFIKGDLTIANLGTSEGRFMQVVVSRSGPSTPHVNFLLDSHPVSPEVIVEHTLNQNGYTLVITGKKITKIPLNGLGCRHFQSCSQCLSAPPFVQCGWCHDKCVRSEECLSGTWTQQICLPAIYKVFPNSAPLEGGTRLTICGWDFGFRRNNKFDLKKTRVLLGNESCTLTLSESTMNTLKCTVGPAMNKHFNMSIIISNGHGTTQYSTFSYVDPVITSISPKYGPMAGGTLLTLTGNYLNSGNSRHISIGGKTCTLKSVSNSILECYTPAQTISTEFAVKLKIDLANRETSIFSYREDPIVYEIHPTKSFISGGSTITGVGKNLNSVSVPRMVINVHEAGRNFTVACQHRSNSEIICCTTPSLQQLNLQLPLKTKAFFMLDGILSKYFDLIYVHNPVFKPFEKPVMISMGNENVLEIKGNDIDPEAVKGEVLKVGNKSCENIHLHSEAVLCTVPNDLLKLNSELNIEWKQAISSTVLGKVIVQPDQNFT
T1 sequence (A0M8R7 25-932 S170N/I621T): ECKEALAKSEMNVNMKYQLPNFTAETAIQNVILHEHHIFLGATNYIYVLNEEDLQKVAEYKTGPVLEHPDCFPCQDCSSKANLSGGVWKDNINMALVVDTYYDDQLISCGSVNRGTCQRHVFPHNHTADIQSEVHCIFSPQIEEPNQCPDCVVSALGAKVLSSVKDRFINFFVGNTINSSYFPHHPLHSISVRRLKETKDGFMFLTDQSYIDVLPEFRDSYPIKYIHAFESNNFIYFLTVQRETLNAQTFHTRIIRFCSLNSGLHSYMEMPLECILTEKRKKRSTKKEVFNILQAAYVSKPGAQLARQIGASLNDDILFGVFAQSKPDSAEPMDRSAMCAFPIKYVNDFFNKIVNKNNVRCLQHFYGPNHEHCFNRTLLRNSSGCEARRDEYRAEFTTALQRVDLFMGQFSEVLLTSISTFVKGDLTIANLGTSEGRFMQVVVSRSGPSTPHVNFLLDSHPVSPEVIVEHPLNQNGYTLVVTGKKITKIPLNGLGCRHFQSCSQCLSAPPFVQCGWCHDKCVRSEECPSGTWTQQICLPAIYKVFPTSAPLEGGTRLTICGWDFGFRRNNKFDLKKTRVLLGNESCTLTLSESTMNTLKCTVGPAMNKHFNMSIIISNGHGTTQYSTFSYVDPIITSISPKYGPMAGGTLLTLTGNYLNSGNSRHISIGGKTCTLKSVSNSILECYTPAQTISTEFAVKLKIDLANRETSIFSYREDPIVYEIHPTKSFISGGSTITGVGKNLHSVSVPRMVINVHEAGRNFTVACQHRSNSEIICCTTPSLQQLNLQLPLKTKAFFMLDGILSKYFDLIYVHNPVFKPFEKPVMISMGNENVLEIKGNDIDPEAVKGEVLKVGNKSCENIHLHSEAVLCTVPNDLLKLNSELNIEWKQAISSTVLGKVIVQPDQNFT
Chain of Mouse cMET (recombinant) (P16056 25-929 limits assumed): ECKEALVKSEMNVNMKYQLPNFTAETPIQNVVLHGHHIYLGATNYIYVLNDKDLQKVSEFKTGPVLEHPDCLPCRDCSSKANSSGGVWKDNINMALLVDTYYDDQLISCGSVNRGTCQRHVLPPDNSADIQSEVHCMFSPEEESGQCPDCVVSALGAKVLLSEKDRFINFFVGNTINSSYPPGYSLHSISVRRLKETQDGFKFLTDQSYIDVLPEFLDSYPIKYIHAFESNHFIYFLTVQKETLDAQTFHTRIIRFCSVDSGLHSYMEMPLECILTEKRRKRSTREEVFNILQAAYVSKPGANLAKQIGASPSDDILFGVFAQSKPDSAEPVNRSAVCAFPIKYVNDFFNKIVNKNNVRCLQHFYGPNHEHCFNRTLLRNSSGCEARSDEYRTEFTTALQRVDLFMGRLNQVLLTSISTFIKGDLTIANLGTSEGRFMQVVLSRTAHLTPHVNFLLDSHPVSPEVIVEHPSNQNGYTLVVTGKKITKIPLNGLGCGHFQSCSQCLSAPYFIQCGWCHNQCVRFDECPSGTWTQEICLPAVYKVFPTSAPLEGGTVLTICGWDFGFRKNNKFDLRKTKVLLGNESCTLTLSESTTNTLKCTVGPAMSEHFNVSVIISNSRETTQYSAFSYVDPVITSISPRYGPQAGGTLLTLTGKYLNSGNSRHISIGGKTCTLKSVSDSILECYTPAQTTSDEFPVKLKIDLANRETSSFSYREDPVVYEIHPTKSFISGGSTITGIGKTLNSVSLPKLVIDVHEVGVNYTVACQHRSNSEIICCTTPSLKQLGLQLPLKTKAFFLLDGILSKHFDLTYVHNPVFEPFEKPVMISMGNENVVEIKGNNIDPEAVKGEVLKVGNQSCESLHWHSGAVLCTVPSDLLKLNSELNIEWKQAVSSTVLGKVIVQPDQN

B1: QD6/B09-57 DuetMab (bispecific antibody, human IgG1, kappa, lambda)
heavy 1: QVQLVQSGAEVKKPGSSVKVSCKASGGTFSDNDFSWVRQAPGQGLEWMGAIVAVVRTETYAQKFQDRVKITADISTRTTYMELSSLRSEDTAVYYCARRLMSAISGPGAPLLMWGQGTLVTVSSASTKGPSVFPLAPSSKSTSGGTAALGCLVKDYFPEPVTVSWNSGALTSGVHTFPAVLQSSGLYSLSSVVTVPSSSLGTQTYICNVNHKPSNTKVDKRVEPKSCDKTHTCPPCPAPELLGGPSCVFLFPPKPKDTLMISRTPEVTCVVVDVSHEDPEVKFNWYVDGVEVHNAKTKPREEQYNSTYRVVSVLTVLHQDWLNGKEYKCKVSNKALPAPIEKTISKAKGQPREPQVCTLPPSREEMTKNQVSLSCAVKGFYPSDIAVEWESNGQPENNYKTTPPVLDSDGSFFLVSKLTVDKSRWQQGNVFSCSVMHEALHNHYTQKSLSLSPGK
heavy 2: QVQLVQSGAEVKKPGASVKVSCKASGYTFTDYYIHWVRQATGQGLEWMGWMNPNSGNTGYAQKFQGRVTMTRDTSISTAYMELSSLRSEDTAVYYCARGQGYTHSWGQGTMVTVSSASTKGPSVCPLAPSSKSTSGGTAALGCLVKDYFPEPVTVSWNSGALTSGVHTFPAVLQSSGLYSLSSVVTVPSSSLGTQTYICNVNHKPSNTKVDKRVEPKSVDKTHTCPPCPAPELLGGPSCVFLFPPKPKDTLMISRTPEVTCVVVDVSHEDPEVKFNWYVDGVEVHNAKTKPREEQYNSTYRVVSVLTVLHQDWLNGKEYKCKVSNKALPAPIEKTISKAKGQPREPQVYTLPPCREEMTKNQVSLWCLVKGFYPSDIAVEWESNGQPENNYKTTPPVLDSDGSFFLYSKLTVDKSRWQQGNVFSCSVMHEALHNHYTQKSLSLSPG
light 1: QSALTQPRSVSGSPGQSVTISCTGTSSDVGGYNYVSWYQQHPGKAPKLMIYDVSERPSGVPDRFSGSKSGNTASLTISGLQAEDEADYYCFSYTSSDTLEIFGGGTKLTVLGQPKAAPSVTLFPPSSEELQANKATLVCLISDFYPGAVTVAWKADSSPVKAGVETTTPSKQSNNKYAASSYLSLTPEQWKSHRSYSCQVTHEGSTVEKTVAPTECS
light 2: DIQMTQSPSTLSASVGDRVTITCRASEGIYHWLAWYQQKPGKAPKLLIYKASSLASGVPSRFSGSGSGTEFTLTISSLQPDDFATYYCQQYSNYPPTFGGGTKLEIKRTVAAPSVFIFPPCDEQLKSGTASVVCLLNNFYPREAKVQWKVDNALQSGNSQESVTEQDSKDSTYSLSSTLTLSKADYEKHKVYACEVTHQGLSSPVTKSFNRGEV
notes: also called monovalent bispecific EGFR/cMET DuetMAb QD6/B09
By Kd is commonly meant a measure of binding affinity in units of concentration. Broadly, the koff is a measure of how fast the partners let go of each other. Usually kon stands for a measure of how fast the partners come together. B1: the internalization half-times in the experiment with H1975 cells came out at 37.5 ± 10.6 min. Also, the Kd was 2.2 nM in [1]; 5.9 nM in experiment [2]; 2.8 nM in [3]; 6.2 nM in experiment [4]; 1.6 nM in experiment [5]. The koff in [1] stood at 0.00206 s⁻¹; in experiment [2], 0.000374 s⁻¹; in [3], 0.000585 s⁻¹; in [4] it was 0.00078 s⁻¹; in experiment [5], 0.000696 s⁻¹. For the same molecule, the kon turned out to be 958000 M⁻¹ s⁻¹ in experiment [1]; 63500 M⁻¹ s⁻¹ in [2]; 210000 M⁻¹ s⁻¹ in experiment [3]; 126000 M⁻¹ s⁻¹ in experiment [4]; 425000 M⁻¹ s⁻¹ in experiment [5]. Further, the binding result with Mouse cMET (recombinant), with HER4 and in the experiment with Semaphorin 3a was “no binding (tested: 10 ug/ml)” each time.
